± gives the uncertainty stated by the source.
Assay: self-splicing fitness, log relative to wild type (ln ratio); higher = more splicing; Tetrahymena group I intron in knt gene, E. coli kanamycin selection, DiMSum; sequences stand for … in CUCUCU…GGAGGGAAAAGUUAUCAGGCAUGCACCUGGUAGCUAGUCUUUAAACCAAUAGAUUGCAUCGGUUUAAAAGGCAAGACCGUCAAAUUGCGGGAAAGGGGUCAACAGCCGUUCAGUACCAAGUCUCAGGGGAAACUUUGAGAUGGCCUUGCAAAGGGUAUGGUAAUAAGCUGACGGACAUGGUCCUAACCACGCAGCCAAGUCCUAAGUCAACAGAUCUUCUGUUGAUAUGGAUGCAGUUCACAGACUAAAUGUCGGUCGGGGAAGAUGUAUUCUUCUCAUAAGAUAUAGUCGGACCUCUCCUUAAUGGGAGCUAGCGGAUGAAGUGAUGCAACACUGGAGCCGCUGGGAACUAAUUUGUAUGCGAAAGUAUAUUGAUUAGUUUUGGAGUACUCGUGGUCG
Procedure, shortened: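 A randomised library covering all eight P1ex-region intron nucleotides was built with the intron in the knt kanamycin-resistance gene on pET-22b(+) and held in E. coli BL21(DE3). Cells were grown overnight at 37°C or 30°C on LB agar, with or without 25 μg/mL kanamycin, plus 100 μg/mL carbenicillin, 50 μM IPTG and 0.2% rhamnose, and pooled colonies were amplicon-sequenced on an Illumina HiSeq 2500. DiMSum fitness is the error-weighted combination of wild-type-normalised replicate fold changes, kanamycin versus none.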

| Sequence | self-splicing fitness (ln) (30 °C) | self-splicing fitness (ln) (37 °C) |
| --- | --- | --- |
| UCCGAGCAAUAUUACGGACA | -2.33 ± 0.18 | -0.762 ± 0.13 |
| UCCGAGCAAUAUUACGGGAA | -3.05 ± 0.3 | -1.65 ± 0.19 |
| UCCGAGCAAUAUUACGGGGG | -4.27 ± 0.33 | -2.47 ± 0.22 |
| UCCGAGCAAUAUUACGGGUA | -1.06 ± 0.13 | -0.229 ± 0.096 |
| UCCGAGCAAUAUUACGGGUC | – | -2.45 ± 0.26 |
| UCCGAGCAAUAUUACGGUGG | -2.76 ± 0.14 | -2.31 ± 0.2 |
| UCCGAGCAAUAUUACGUAGU | -2.97 ± 0.16 | -2.71 ± 0.18 |
| UCCGAGCAAUAUUACGUCCG | -2.24 ± 0.24 | – |
| UCCUAGCAAUAUUACGACAC | -0.225 ± 0.29 | – |
| UCCUAGCAAUAUUACGACCU | -3.41 ± 0.48 | -1.76 ± 0.31 |
| UCCUAGCAAUAUUACGAUAG | -2.89 ± 0.33 | -2.14 ± 0.35 |
| UCCUAGCAAUAUUACGAUGC | -2.85 ± 0.21 | -2.7 ± 0.29 |
| UCCUAGCAAUAUUACGAUUG | -2.56 ± 0.24 | -2.49 ± 0.45 |
| UCCUAGCAAUAUUACGCAGU | -3.03 ± 0.15 | -2.54 ± 0.2 |
| UCCUAGCAAUAUUACGCGAC | -3.46 ± 0.32 | -1.49 ± 0.31 |
| UCCUAGCAAUAUUACGCUCC | -3.73 ± 0.33 | -0.747 ± 0.24 |
| UCCUAGCAAUAUUACGCUGA | -1.02 ± 0.11 | -0.876 ± 0.12 |
| UCCUAGCAAUAUUACGGCAA | -2.22 ± 0.2 | -1.95 ± 0.19 |
| UCCUAGCAAUAUUACGGCCU | -2.37 ± 0.34 | -2.29 ± 0.37 |
| UCCUAGCAAUAUUACGGCUC | – | -1.62 ± 0.44 |
| UCCUAGCAAUAUUACGGGGA | -2.59 ± 0.24 | -1.59 ± 0.21 |
| UCCUAGCAAUAUUACGGGGC | -3.1 ± 0.23 | -2.77 ± 0.32 |
| UCCUAGCAAUAUUACGGGGG | -3.69 ± 0.18 | -2.59 ± 0.27 |
| UCCUAGCAAUAUUACGGUAC | -3.79 ± 0.26 | -3.32 ± 0.47 |
| UCCUAGCAAUAUUACGGUCG | -1.69 ± 0.14 | -1.59 ± 0.17 |
| UCCUAGCAAUAUUACGUAGA | -2.36 ± 0.05 | -0.729 ± 0.069 |

| Sequence | self-splicing fitness (ln) (30 °C) | self-splicing fitness (ln) (37 °C) |
| --- | --- | --- |
| UCCUAGCAAUAUUACGUAGG | -3.58 ± 0.19 | -2.21 ± 0.26 |
| UCCUAGCAAUAUUACGUCAC | -1.97 ± 0.2 | -2.6 ± 0.27 |
| UCCUAGCAAUAUUACGUCAG | -3.38 ± 0.29 | -2.41 ± 0.37 |
| UCCUAGCAAUAUUACGUCCA | -3.15 ± 0.48 | -1.56 ± 0.34 |
| UCCUAGCAAUAUUACGUGAU | -3.3 ± 0.28 | -1.9 ± 0.24 |
| UCCUAGCAAUAUUACGUGGG | -3.24 ± 0.15 | -2.5 ± 0.2 |
| UCCUAGCAAUAUUACGUGUA | -2.28 ± 0.18 | -1.09 ± 0.12 |
| UCCUAGCAAUAUUACGUUAU | -2.99 ± 0.19 | -2.59 ± 0.24 |
| UCCUAGCAAUAUUACGUUCG | -1.03 ± 0.16 | -2.28 ± 0.28 |
| UCCUAGCAAUAUUACGUUUG | -3.11 ± 0.17 | -3.36 ± 0.26 |
| UCGAAGCAAUAUUACGAAAG | -3.24 ± 0.23 | -2.47 ± 0.44 |
| UCGAAGCAAUAUUACGAACA | -0.799 ± 0.12 | -0.112 ± 0.14 |
| UCGAAGCAAUAUUACGAACG | -1.82 ± 0.13 | -0.935 ± 0.14 |
| UCGAAGCAAUAUUACGAAGU | -4.55 ± 0.32 | -1.43 ± 0.19 |
| UCGAAGCAAUAUUACGAGAC | -3.11 ± 0.22 | – |
| UCGAAGCAAUAUUACGAUGU | -1.82 ± 0.067 | -0.546 ± 0.085 |
| UCGAAGCAAUAUUACGCCAA | -2.4 ± 0.27 | -2.2 ± 0.37 |
| UCGAAGCAAUAUUACGCUAC | -2.18 ± 0.26 | – |
| UCGAAGCAAUAUUACGGCAU | -3.26 ± 0.2 | -1.62 ± 0.24 |
| UCGAAGCAAUAUUACGGCGG | -1.14 ± 0.11 | -0.364 ± 0.17 |
| UCGAAGCAAUAUUACGGGGG | -1.86 ± 0.18 | -1.39 ± 0.2 |
| UCGAAGCAAUAUUACGGGGU | -4.05 ± 0.21 | -2.25 ± 0.17 |
| UCGAAGCAAUAUUACGGGUA | -0.839 ± 0.062 | -0.123 ± 0.068 |
| UCGAAGCAAUAUUACGGUGG | -1.82 ± 0.094 | -1.55 ± 0.14 |
| UCGAAGCAAUAUUACGUAGC | – | -2.17 ± 0.31 |
| UCGAAGCAAUAUUACGUCGA | -3.65 ± 0.47 | -1.78 ± 0.19 |

| Sequence | self-splicing fitness (ln) (30 °C) | self-splicing fitness (ln) (37 °C) |
| --- | --- | --- |
| UCGAAGCAAUAUUACGUUGA | -2.05 ± 0.099 | -2.63 ± 0.13 |
| UCGCAGCAAUAUUACGAAAC | – | -3.1 ± 0.35 |
| UCGCAGCAAUAUUACGAACU | -3.13 ± 0.19 | -1.69 ± 0.17 |
| UCGCAGCAAUAUUACGAAGC | -3.52 ± 0.27 | -2.25 ± 0.25 |
| UCGCAGCAAUAUUACGACGG | -1.15 ± 0.069 | -0.0065 ± 0.1 |
| UCGCAGCAAUAUUACGACUG | -1.93 ± 0.14 | -2.7 ± 0.25 |
| UCGCAGCAAUAUUACGAGAA | -1.41 ± 0.34 | -0.949 ± 0.21 |
| UCGCAGCAAUAUUACGAUAU | -3.68 ± 0.3 | -2.41 ± 0.27 |
| UCGCAGCAAUAUUACGCGAG | -2.85 ± 0.15 | -2.56 ± 0.15 |
| UCGCAGCAAUAUUACGCUUU | -3.69 ± 0.18 | -1.84 ± 0.13 |
| UCGCAGCAAUAUUACGGCUG | -3.46 ± 0.24 | -2.45 ± 0.32 |
| UCGCAGCAAUAUUACGUCCA | -0.754 ± 0.086 | -0.0511 ± 0.094 |
| UCGCAGCAAUAUUACGUGAC | -5.1 ± 0.38 | -2.41 ± 0.26 |
| UCGCAGCAAUAUUACGUUGA | -3.11 ± 0.23 | -1.06 ± 0.14 |
| UCGGAGCAAUAUUACGAUCG | -1.22 ± 0.15 | -0.115 ± 0.15 |
| UCGGAGCAAUAUUACGCAUG | -3.6 ± 0.22 | -1.38 ± 0.17 |
| UCGGAGCAAUAUUACGCCGA | -3.12 ± 0.32 | – |
| UCGGAGCAAUAUUACGCUUU | – | -2.3 ± 0.49 |
| UCGGAGCAAUAUUACGGAUA | -2.51 ± 0.35 | -1.96 ± 0.29 |
| UCGGAGCAAUAUUACGGAUC | -3.21 ± 0.43 | – |
| UCGGAGCAAUAUUACGGUAG | -3.8 ± 0.35 | -2.8 ± 0.28 |
| UCGGAGCAAUAUUACGGUGU | -3.4 ± 0.31 | -1.7 ± 0.37 |
| UCGGAGCAAUAUUACGUACC | -2.84 ± 0.48 | – |
| UCGGAGCAAUAUUACGUCAC | -3.68 ± 0.43 | -2.68 ± 0.36 |
| UCGGAGCAAUAUUACGUCAG | – | -1.11 ± 0.34 |
| UCGGAGCAAUAUUACGUCUG | -2.56 ± 0.19 | -0.878 ± 0.24 |

| Sequence | self-splicing fitness (ln) (30 °C) | self-splicing fitness (ln) (37 °C) |
| --- | --- | --- |
| UCGGAGCAAUAUUACGUGCG | -2.06 ± 0.093 | -1.32 ± 0.11 |
| UCGGAGCAAUAUUACGUUAC | -1.87 ± 0.3 | – |
| UCGGAGCAAUAUUACGUUGA | -2.58 ± 0.25 | -1.22 ± 0.16 |
| UCGGAGCAAUAUUACGUUUU | -3.91 ± 0.4 | – |
| UCGUAGCAAUAUUACGACUA | -1.41 ± 0.19 | -0.0995 ± 0.15 |
| UCGUAGCAAUAUUACGAUCU | -1.92 ± 0.3 | -1.67 ± 0.37 |
| UCGUAGCAAUAUUACGAUGA | -0.769 ± 0.12 | -0.601 ± 0.13 |
| UCGUAGCAAUAUUACGCAAU | -3.7 ± 0.47 | -1.99 ± 0.31 |
| UCGUAGCAAUAUUACGCACG | -1.8 ± 0.23 | -0.584 ± 0.2 |
| UCGUAGCAAUAUUACGCUCA | -0.522 ± 0.13 | -0.556 ± 0.16 |
| UCGUAGCAAUAUUACGCUUA | – | -1.1 ± 0.47 |
| UCGUAGCAAUAUUACGCUUC | -3.12 ± 0.48 | – |
| UCGUAGCAAUAUUACGGGCA | -0.422 ± 0.14 | -0.0787 ± 0.13 |
| UCGUAGCAAUAUUACGGGGA | -2.6 ± 0.28 | -1.23 ± 0.23 |
| UCGUAGCAAUAUUACGGGGG | -3.07 ± 0.44 | -2 ± 0.47 |
| UCGUAGCAAUAUUACGUACG | -3.07 ± 0.24 | -1.96 ± 0.19 |
| UCGUAGCAAUAUUACGUAGC | -2.27 ± 0.43 | – |
| UCGUAGCAAUAUUACGUAUG | -2.04 ± 0.14 | -1.93 ± 0.2 |
| UCGUAGCAAUAUUACGUCCG | -0.957 ± 0.074 | -0.517 ± 0.091 |
| UCGUAGCAAUAUUACGUCGC | – | -1.37 ± 0.41 |
| UCGUAGCAAUAUUACGUCUU | -2.7 ± 0.15 | -0.44 ± 0.14 |
| UCGUAGCAAUAUUACGUGAC | -1.99 ± 0.26 | – |
| UCGUAGCAAUAUUACGUUAG | -3.83 ± 0.3 | -2.1 ± 0.46 |
| UCUAAGCAAUAUUACGACCC | – | -0.661 ± 0.44 |

— the supplement of paper PMC7877785
